# According to the supplement of paper PMC6755084:
# B1: minF1; a variant is named by its letters at N, in order (parent)
# chain: GAGACCGCAACTGAAAAGTTGTTNNNNAANNNNGGNTNNATTTCTGCACGTAGAAGCAAAAGGC
# Variants of: B1
# Assay: fraction ligated after 30 min (ligated reads / total reads); higher = more ligase activity
# Conditions: with F1*subA RNA substrate (template-directed ligation), 42 °C
# Protocol: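 Chip-synthesised pool of minF1 ligase ribozyme variants (single and double substitutions, single to quadruple deletions, bulge and P2 designed variants) was transcribed with T7 and reacted as a pool with excess substrate F1*subA for 30 min at 42 C in 50 mM EPPS pH 8.5, 25 mM MgCl2. Ligated and unligated RNAs were separated by PAGE, barcoded by RT and deep sequenced; fraction ligated = ligated reads / total reads, relative activity = FL / FL of wild-type minF1 (0.76); sequencing FL correlated with PAGE (R2 = 0.98). Sequences are the DNA template of the ribozyme.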
row,Variant,fraction ligated
1,TCAGATGGGTT T23A G34A T37G,0.000991
2,ACGATGGAGTA,0.00344
3,ACGATGGAGTG,0.0132
4,ACAGTGAGTGA,0.00274
5,TCGATGGGTGA,0.00376
6,CGAAGGATGTG A29T,0.0152
7,TCGATGGTGTG T23A,0.00391
8,TCGAGATGTGA,0.0048
9,ACAGGGATGTG A29T,0.00794
10,TCAGATATGTA T23A,0.00212
11,TCAGATGATGA,0.00144
12,ACAGATGGGTA G34A,0.00284
13,ACAGATGGGTA G34T,0.00288
14,TCAGATGAGTA T23A,0.00194
15,ACGATGGTGTA,0.00204
16,ACGATGGTGTG,0.00433
17,ACAGTGGAGTA G34T,0.0155
18,TCAGATGGGTT G34A G35T T37G,0.00107
19,AGAAGGAGTGA T23A A29T,0.00185
20,TCAGTGATGTA T23A,0.00165
21,TCGATATGTGA,0.00214

row,Variant,fraction ligated
1,ACAGGGAGTGA,0.00202
2,ACGATGAGTGA,0.0021
3,TCAGATGGGTT T23A G34T T37G A40G,0.00157
4,ACAGATGAGTG,0.00387
5,ACAGATGAGTA,0.00413
6,ACAGATGGGTG,0.00567
7,ACAGATGGGTA,0.00187
8,TCAGATGTTGA T23A,0.00154
9,TCAGGGATGTA,0.00309
10,TCAGGGATGTG,0.00637
11,TCAGAGTGTGA,0.00219
12,TGAAGGAGTGA A29T,0.000652
13,TCAGTGGGTGA T23A,0.0036
14,ACAGATGATGA,0.00115
15,TCGATGGTGTG,0.00467
16,TCGATGGTGTA,0.00285
17,ACAGATGGGTT G34T T37G,0.0016
18,TCAGATGATGA T23A,0.00196
19,ACGAGATGTGA,0.00357
20,AGAAGGAGTGA T23C A29T,0.0019
21,ACGATATGTGA,0.00174

row,Variant,fraction ligated
1,TCGAGGATGTG A29T,0.0133
2,TCAGATGGTGA T23A,0.0062
3,TCAGATGAGTA T23A G34T,0.00285
4,TCAGTGTGTGA T23A,0.00289
5,ACAGAGGGTGA,0.00282
6,TCGATGGAGTG G34T,0.253
7,ACGAGGATGTG A29T,0.0152
8,TCAGAGGATGA T23A,0.00378
9,ACAGAGGATGA,0.00191
10,TCGATGGTGTA T23A,0.00392
11,CGAAGGAGTGA A29T,0.00331
12,TCAGATGAGTG T23A,0.00683
13,TGAAGATGTGA A28T A29G,0.00314
14,TCAGTGGAGTG T23A,0.00892
15,TCAGAGGGTGA,0.00299
16,TCAGATATGTG T23A,0.00384
17,TCGAGGATTGA A29T,0.00979
18,TCAGGGATTGA A29T,0.00182
19,ACAGATGGGGT G34A G35T T37G A40T,0.00109
20,TCAGAGGTGTG,0.00329
21,TCAGAGGTGTA,0.0016

row,Variant,fraction ligated
1,ACGATGGAGTT G34T T37G A40G,0.00103
2,ACAGAGGTGTG,0.00409
3,ACAGAGGTGTA,0.00348
4,ACAGGGTGTGA A29T,0.000904
5,TCAGATATTGA,0.00261
6,TCAGATATGTG,0.00722
7,TCAGATATGTA,0.00271
8,ACAGTGATGTA,0.00194
9,ACAGTGATGTG,0.00312
10,TCGATGGAGTG T23A,0.02
11,TCAGATATTGA T23A,0.00254
12,TCAGTGTGTGA,0.00218
13,ACAGTATGTGA,0.00319
14,TCAGATGTTGA,0.0015
15,TCAGATGGGTT G34T T37G A40G,0.000744
16,TCAGATGGGTA G34T,0.00105
17,TCAGATGGGTA G34A,0.00212
18,TCGATGATGTG T23A,0.00459
19,ACAGTGGAGTT G34T T37G A40G,0.00141
20,TGAAGGAGTGA T23A A29T,0.00234
21,TCAGTGGAGTG G34T,0.0219
